{
  "source": "patent US20240241135A1",
  "about": "(SENBOLL BIOTECHNOLOGY, published 2024)",
  "binders": {"B1": {"name": "antibody 21B11D2 (antibody, mouse IgG2b, kappa, V domains shown)", "VH": "QAQLQQSGAELVRPGASVTLSCKASGYIFTDYEMHWVKQTPVHGLEWIGAIDPETGGTAYNQKFKGKARLTADKSSSTAYMELRSLTSEDSAVYYCTIYYTNHFDYWGQGTTLTVSS", "VL": "DVVMTQTPLSLPVSLGDQASISCRSSQSLVYSNGDTYLYWYLQKPGQSPKLLIYKVSNRFSGVPDRFSGSGSGTDFTLKISRVEAEDLGVYFCSQSTHVPLTFGAGTKLELKR", "notes": "Mouse monoclonal from hybridoma, stated mouse IgG1/Kappa; Used unlabelled as capture and biotin-labelled as detection antibody; also called 21B11D2-biotin"}},
  "key": {"[1]": {"target": "T1, recombinant human regenerating islet-derived protein 1α (REG1A) (human, UniProt P05451 23-166, limits assumed)", "T1 construct": "also called recombinant human REG1A; recombinant REG1A", "T1 sequence (looked up)": "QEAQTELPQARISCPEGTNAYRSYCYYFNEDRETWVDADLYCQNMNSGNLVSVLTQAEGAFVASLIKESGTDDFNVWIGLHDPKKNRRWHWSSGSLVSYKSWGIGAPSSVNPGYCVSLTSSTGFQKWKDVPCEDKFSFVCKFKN", "experiment": "sandwich ELISA; capture 11D11B11; REG1A 33.33 ng/mL", "summary_of_the_method": "(§1)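 Sandwich ELISA with the capture monoclonal antibody coated overnight at 4 °C in PBS, then blocking for 2 h at 37 °C. Recombinant human REG1A in basic diluent (100 μL per well) was incubated for 1 h at 37 °C. It was then detected with a horseradish peroxidase-based detection antibody system and TMB substrate for 15 min at 37 °C, and stopped with 0.2M sulfuric acid. OD value is the absorbance at 450 nm minus that at 620/630 nm.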"}, "[2]": {"target": "T1, recombinant human regenerating …", "experiment": "sandwich ELISA; capture 25F3C4; REG1A 100.00 ng/mL", "summary_of_the_method": "as §1"}, "[3]": {"target": "T1, recombinant human regenerating …", "experiment": "sandwich ELISA; capture 25F3C4; REG1A 1.23 ng/mL", "summary_of_the_method": "as §1"}, "[4]": {"target": "T1, recombinant human regenerating …", "experiment": "sandwich ELISA; capture 11D11B11; REG1A 3.70 ng/mL", "summary_of_the_method": "as §1"}, "[5]": {"target": "T1, recombinant human regenerating …", "experiment": "sandwich ELISA; capture 25F3C4; REG1A 3.70 ng/mL", "summary_of_the_method": "as §1"}, "[6]": {"target": "T1, recombinant human regenerating …", "experiment": "sandwich ELISA; capture 4H8F1; REG1A 11.11 ng/mL", "summary_of_the_method": "as §1"}, "[7]": {"target": "T1, recombinant human regenerating …", "experiment": "sandwich ELISA; capture 21B11D2; REG1A 1.23 ng/mL", "summary_of_the_method": "as §1"}, "[8]": {"target": "T1, recombinant human regenerating …", "experiment": "sandwich ELISA; capture 25F3C4; REG1A 11.11 ng/mL", "summary_of_the_method": "as §1"}, "[9]": {"target": "T1, recombinant human regenerating …", "experiment": "sandwich ELISA; capture 12F12A10; REG1A 3.70 ng/mL", "summary_of_the_method": "as §1"}, "[10]": {"target": "T1, recombinant human regenerating …", "experiment": "sandwich ELISA; capture 21B11D2; REG1A 100.00 ng/mL", "summary_of_the_method": "as §1"}, "[11]": {"target": "T1, recombinant human regenerating …", "experiment": "sandwich ELISA; capture 4H8F1; REG1A 1.23 ng/mL", "summary_of_the_method": "as §1"}, "[12]": {"target": "T1, recombinant human regenerating …", "experiment": "sandwich ELISA; capture 4H8F1; REG1A 3.70 ng/mL", "summary_of_the_method": "as §1"}, "[13]": {"target": "T1, recombinant human regenerating …", "experiment": "sandwich ELISA; capture 21B11D2; REG1A 33.33 ng/mL", "summary_of_the_method": "as §1"}, "[14]": {"target": "T1, recombinant human regenerating …", "experiment": "sandwich ELISA; capture 4H8F1; REG1A 33.33 ng/mL", "summary_of_the_method": "as §1"}, "[15]": {"target": "T1, recombinant human regenerating …", "experiment": "sandwich ELISA; capture 21B11D2; REG1A 11.11 ng/mL", "summary_of_the_method": "as §1"}, "[16]": {"target": "T1, recombinant human regenerating …", "experiment": "sandwich ELISA; capture 25F3C4; REG1A 0 ng/mL (blank)", "summary_of_the_method": "as §1"}, "[17]": {"target": "T1, recombinant human regenerating …", "experiment": "sandwich ELISA; capture 12F12A10; REG1A 0 ng/mL (blank)", "summary_of_the_method": "as §1"}, "[18]": {"target": "T1, recombinant human regenerating …", "experiment": "sandwich ELISA; capture 4H8F1; REG1A 100.00 ng/mL", "summary_of_the_method": "as §1"}, "[19]": {"target": "T1, recombinant human regenerating …", "experiment": "sandwich ELISA; capture 11D11B11; REG1A 11.11 ng/mL", "summary_of_the_method": "as §1"}, "[20]": {"target": "T1, recombinant human regenerating …", "experiment": "sandwich ELISA; capture 21B11D2; REG1A 3.70 ng/mL", "summary_of_the_method": "as §1"}, "[21]": {"target": "T1, recombinant human regenerating …", "experiment": "sandwich ELISA; capture 4H8F1; REG1A 0 ng/mL (blank)", "summary_of_the_method": "as §1"}, "[22]": {"target": "T1, recombinant human regenerating …", "experiment": "sandwich ELISA; capture 12F12A10; REG1A 11.11 ng/mL", "summary_of_the_method": "as §1"}, "[23]": {"target": "T1, recombinant human regenerating …", "experiment": "sandwich ELISA; capture 11D11B11; REG1A 1.23 ng/mL", "summary_of_the_method": "as §1"}, "[24]": {"target": "T1, recombinant human regenerating …", "experiment": "sandwich ELISA; capture 25F3C4; REG1A 33.33 ng/mL", "summary_of_the_method": "as §1"}, "[25]": {"target": "T1, recombinant human regenerating …", "experiment": "sandwich ELISA; capture 11D11B11; REG1A 100.00 ng/mL", "summary_of_the_method": "as §1"}, "[26]": {"target": "T1, recombinant human regenerating …", "experiment": "sandwich ELISA; capture 12F12A10; REG1A 1.23 ng/mL", "summary_of_the_method": "as §1"}, "[27]": {"target": "T1, recombinant human regenerating …", "experiment": "sandwich ELISA; capture 12F12A10; REG1A 100.00 ng/mL", "summary_of_the_method": "as §1"}, "[28]": {"target": "T1, recombinant human regenerating …", "experiment": "sandwich ELISA; capture 12F12A10; REG1A 33.33 ng/mL", "summary_of_the_method": "as §1"}, "[29]": {"target": "T1, recombinant human regenerating …", "experiment": "sandwich ELISA; capture 21B11D2; REG1A 0 ng/mL (blank)", "summary_of_the_method": "as §1"}, "[30]": {"target": "T1, recombinant human regenerating …", "experiment": "sandwich ELISA; capture 11D11B11; REG1A 0 ng/mL (blank)", "summary_of_the_method": "as §1"}},
  "data": [
    {"binder": "B1", "values": [
      {"measurement": "OD value", "setting": "[1]", "result": 0.063, "unit": "OD"},
      {"measurement": "OD value", "setting": "[2]", "result": 0.073, "unit": "OD"},
      {"measurement": "OD value", "setting": "[3]", "result": 0.066, "unit": "OD"},
      {"measurement": "OD value", "setting": "[4]", "result": 0.06, "unit": "OD"},
      {"measurement": "OD value", "setting": "[5]", "result": 0.068, "unit": "OD"},
      {"measurement": "OD value", "setting": "[6]", "result": 0.07, "unit": "OD"},
      {"measurement": "OD value", "setting": "[7]", "result": 0.066, "unit": "OD"},
      {"measurement": "OD value", "setting": "[8]", "result": 0.069, "unit": "OD"},
      {"measurement": "OD value", "setting": "[9]", "result": 2.38, "unit": "OD"},
      {"measurement": "OD value", "setting": "[10]", "result": 0.068, "unit": "OD"},
      {"measurement": "OD value", "setting": "[11]", "result": 0.072, "unit": "OD"},
      {"measurement": "OD value", "setting": "[12]", "result": 0.068, "unit": "OD"},
      {"measurement": "OD value", "setting": "[13]", "result": 0.071, "unit": "OD"},
      {"measurement": "OD value", "setting": "[14]", "result": 0.073, "unit": "OD"},
      {"measurement": "OD value", "setting": "[15]", "result": 0.069, "unit": "OD"},
      {"measurement": "OD value", "setting": "[16]", "result": 0.068, "unit": "OD"},
      {"measurement": "OD value", "setting": "[17]", "result": 0.068, "unit": "OD"},
      {"measurement": "OD value", "setting": "[18]", "result": 0.08, "unit": "OD"},
      {"measurement": "OD value", "setting": "[19]", "result": 0.066, "unit": "OD"},
      {"measurement": "OD value", "setting": "[20]", "result": 0.069, "unit": "OD"},
      {"measurement": "OD value", "setting": "[21]", "result": 0.069, "unit": "OD"},
      {"measurement": "OD value", "setting": "[22]", "result": 2.89, "unit": "OD"},
      {"measurement": "OD value", "setting": "[23]", "result": 0.07, "unit": "OD"},
      {"measurement": "OD value", "setting": "[24]", "result": 0.071, "unit": "OD"},
      {"measurement": "OD value", "setting": "[25]", "result": 0.065, "unit": "OD"},
      {"measurement": "OD value", "setting": "[26]", "result": 1.18, "unit": "OD"},
      {"measurement": "OD value", "setting": "[27]", "result": 3.35, "unit": "OD"},
      {"measurement": "OD value", "setting": "[28]", "result": 3.21, "unit": "OD"},
      {"measurement": "OD value", "setting": "[29]", "result": 0.073, "unit": "OD"},
      {"measurement": "OD value", "setting": "[30]", "result": 0.068, "unit": "OD"}
    ]}
  ]
}
